Results from the supplement of paper PMC12042874.
± gives the uncertainty stated by the source.

assay: amyloid nucleation score (Sup35N fusion, yeast selection) (log enrichment); library NNK1; higher = more nucleation; inactive = no reads after selection
Outline: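 The nucleation score is a DiMSum log enrichment of output over input reads, centred on the mode score of non-aggregating sequences. Sequences under 100 input reads were excluded, and reads came from Illumina sequencing of plasmid inserts. Psi-negative yeast expressing Sup35N fused to peptides of 20 random codons were induced with 100 μM copper sulfate for 24 hours and grown 7 days at 30°C on medium lacking adenine and uracil. Random libraries had three technical output replicates.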

Row | Substance | amyloid nucleation score
1 | PLNKSEAESLFKLLTLLDRN | -1.39 ± 0.46
2 | YAINMVYYV | 1.16 ± 0.29
3 | PLTFSCSLGKGFTWYFCLNV | -0.196 ± 0.45
4 | VMVRTCACFIR | 0.883 ± 0.51
5 | SKSYLVFDNISRRH | -1.11 ± 0.7
6 | AVSAFSTVKSSFGDGGIGFF | -0.398 ± 0.34
7 | YLDGTNSMNAEGNLLNKAPV | 0.189 ± 0.31
8 | RTRFTDASMVWDANFMSNLY | inactive
9 | SWFIL | 0.428 ± 0.85
10 | RCELMNIEFWVKHYGSSSGF | 1.64 ± 0.18
11 | CNQYWVSQ | 0.322 ± 0.26
12 | PCWWQFY | 0.167 ± 0.64
13 | NGSVTNNKNHPFVDYGVRHE | -0.468 ± 0.36
14 | FVIDACIFC | 9.445 ± 0.071
15 | YENHGISDLSCIFTPYKV | inactive
16 | RIRIFNKKSGMGQRWILVEG | -0.006 ± 0.73
17 | YCNGSLLRLAYMFGSGVSPR | 0.935 ± 0.46
18 | TMSFSFF | 0.855 ± 0.28
19 | KLVLSYRYNDG | 2.17 ± 0.18
20 | KYVIMLNLKSEL | 3.4 ± 0.091
21 | DIHNRDCVLYDRLDRHVYMK | -0.083 ± 0.31
22 | LFCFNRVD | inactive
23 | EYNYLDDTCWLGQVGRWLWF | 1.38 ± 0.28
24 | KTYRAIQLSYRIPMKMFRFD | -0.3 ± 0.25
25 | TWYHGSRMSLRVTGRILQCG | -0.43 ± 1.1

Row | Substance | amyloid nucleation score
26 | SHQSDGNWQMVYWCLLVRFT | -0.709 ± 0.56
27 | RKSVKRVAKGGNS | 3.82 ± 0.14
28 | LDVLLLLMDCSRYPKIKGGI | -0.012 ± 0.43
29 | HNLDCKRVGSARTWIEWWVG | 0.07 ± 0.3
30 | DDLWSCMFELDAYMSFYLKA | inactive
31 | SDDLGE | -0.301 ± 0.39
32 | RDNCSLNVYFK | 2.9 ± 0.14
33 | DILEIWL | -0.481 ± 0.4
34 | MQSLRLTESSGPFSLYFAFI | -0.227 ± 0.81
35 | YHVSLLSI | 0.169 ± 0.65
36 | WTSMGTHTFSVRNRSGPHNG | 1.22 ± 0.62
37 | GLYYSFRFYTFSVYRALRGS | -0.392 ± 1.1
38 | KLSDSSLTKCRYSHFYRSSM | -1.99 ± 2.4
39 | SVSFEDDISMASGCCFLRGC | -0.146 ± 0.25
40 | LNVIVKDRGPCKSSSEIAVD | -1.35 ± 1.3
41 | LMWVSRR | 0.13 ± 0.38
42 | AKKWNSSMAKCNFNCLKSVW | -2.05 ± 2.7
43 | LAEHHWYWAEMIWSRGHEFT | 0.158 ± 0.44
44 | DCEGLFI | 0.864 ± 0.74
45 | TNINSSTDKRLPTET | -0.013 ± 0.5
46 | CTVMHELCCRWFELFRRSVR | 1.45 ± 0.63
47 | MVSSCWICRALKAYVLQPWV | 0.108 ± 0.72
48 | RDTTTT | 0.088 ± 0.33
49 | GILFVFFQYF | 1.95 ± 0.15
50 | FICERPGSRKTTLPTVTVIR | -0.499 ± 0.98

Row | Substance | amyloid nucleation score
51 | CCVDGLLLIERHVSLQYHSA | 0.135 ± 0.63
52 | QCSSANTSGIAETSTSLGRT | -0.244 ± 1.1
53 | RRGRLYSKLCLCRF | 0.874 ± 0.92
54 | WYEWSPFSSTWRSSIVLFNL | 0.417 ± 0.56
55 | NLVYTTDT | 0.467 ± 0.41
56 | SLRITLVWGRMQCGPESVCR | 0.745 ± 0.24
57 | MRLHLGWNYEMHRKNRALSI | -0.312 ± 1.4
58 | ADFFESEQVHYKSELAKNHG | 0.049 ± 0.69
59 | GGSDFWIGN | 0.277 ± 0.48
60 | CVVGLISGSPPIRSVFKCNR | 0.156 ± 0.98
61 | PYKIEWLSRTHTAGSYSLQP | -0.135 ± 0.44
62 | DMKDDRRSFTKGP | -0.103 ± 0.69
63 | NNFSSNWWLELWYRYFVYPI | 0.666 ± 0.75
64 | VQGLIQVSVYDRVAGCWHRI | -0.83 ± 0.66
65 | YSRNNIIHFRFISALLPEEV | 0.683 ± 0.37
66 | SRGFDHITFF | -0.677 ± 1.2
67 | KWTLTRLYVACRYNDHSRLS | 1.07 ± 0.39
68 | LMFSIFTYNFGKNWSSKSLG | 0.303 ± 0.52
69 | CMRMRMFSKVVGSLWWESGY | 0.054 ± 0.39
70 | WSRTNMIYNPSVGAIYRV | -0.021 ± 0.41
71 | TTVPSNV | -0.189 ± 1.7
72 | LCMKFSAVFWELKRV | 0.498 ± 0.52
73 | RFCSKRMRVLIFFGLV | -0.165 ± 0.34
74 | SVTWFIYAWWFLGGSL | -0.921 ± 2.4
75 | KLLVLLNN | inactive

Row | Substance | amyloid nucleation score
76 | LFFSYMQLVTNSTCTYLRVF | 1.24 ± 0.74
77 | SYNRIILTFWSFLL | 1.13 ± 0.35
78 | IHKAKISWFLCYMLDDT | 0.097 ± 0.33
79 | LFKSQFEFFEVGSVEDEFFR | inactive
80 | MRISMSVSLLFSYSQYVKLE | -0.238 ± 0.9
81 | RLLSLLINMTVVVWLSRKT | 2.43 ± 0.25
82 | SSAVD | 0.329 ± 1.1
83 | VWFCIYAFVHSYGLYVVSMV | -0.03 ± 0.31
84 | LDYLTTRKANVHRGCVALML | -1.27 ± 0.78
85 | WNISSTFGYGNHWLG | 0.816 ± 0.52
86 | VRRIAWSNGWCRGIGGRSVL | -0.179 ± 0.39
87 | LGKRDFSGFSAKSQLFK | -0.613 ± 0.27
88 | SMYFQRP | 0.53 ± 0.26
89 | YHIRVAWQFVGADI | -0.535 ± 1
90 | MYGLLEDERTVCQWKMICVV | -0.157 ± 0.69
91 | IAGFEVARPSNSKTFFPSKF | 2.07 ± 0.14
92 | DPYTHYVAMRINCYWEMCAL | -1.06 ± 0.93
93 | TVNHFGLEPCVTKIMGLY | 0.213 ± 0.74
94 | INVWNLSWGNMIRAKNHLGV | -0.107 ± 0.53
95 | HWLPHDVLSMWW | 1.29 ± 0.67
96 | LYVFHRRYYWANYDDRYPLP | 0.613 ± 0.48
97 | YIDKG | -0.893 ± 1.9
98 | LHVRVCMYADMLSFYGSFAY | 2.68 ± 0.085
99 | EMAFISYH | 0.4 ± 1.1
100 | SPLMRFFSTDSGARIFLNMS | -0.388 ± 0.52

Row | Substance | amyloid nucleation score
101 | TTRAHEVDTYLYFHFGVGRT | 2.84 ± 0.17
102 | FSFYS | -0.44 ± 0.65
103 | SAHITDVLHKMWRNNTTTWY | 1.15 ± 0.55
104 | QRILTSYGRDMLTSLLRSMP | 1.01 ± 0.58
105 | DSKPVIILR | -0.516 ± 0.27
106 | IRLMRWGRCVGISVEGVC | 0.789 ± 0.46
107 | VFTIWSMFFIVRFNLWWKCA | 0.081 ± 0.49
108 | QCVRLDVTT | -2.14 ± 2.1
109 | LEGHNCADQLLSFLTSSYSL | 1.34 ± 0.44
110 | CLSSALLHLFRRNRIISVVT | 0.193 ± 0.39
111 | WRLRCLRELV | -0.542 ± 0.65
112 | SWNFTLLD | inactive
113 | MISFCSSWKLEQYEWWRRNL | 1.35 ± 0.32
114 | WIWYFLGRGGYVACRSTKVW | 0.016 ± 1.2
115 | KNVSRVCV | inactive
116 | VCVQILAASTWM | 0.844 ± 0.42
117 | IFVVGKGDLGCCQI | 0.967 ± 0.35
118 | ASVFLNQLLPCNYSAVRMGS | 0.134 ± 0.84
119 | TDSAVRDWTRR | 0.532 ± 0.79
120 | VRLNQLDNSLAVRSATNPGA | 0.524 ± 0.65
121 | IVGSSQLSYLGLAFSYGVQV | -0.903 ± 1.7
122 | EHRLR | 0.477 ± 0.59
123 | EGTSPHMHSIRFTLSQLPSF | 0.236 ± 1.1
124 | TTLNEELYSLVVSRDWGDSN | inactive
125 | ANGLMGSWSLEARSFRSDVL | -0.179 ± 1.5

Row | Substance | amyloid nucleation score
126 | LFMGVRTKVNGSAVI | 0.183 ± 0.17
127 | DEKMVSVSSESGRLHKNVKC | 1.11 ± 0.49
128 | MMVFKVSFKVIKVT | -0.07 ± 0.86
129 | YLIYVMPADVMAYWYCFT | -0.379 ± 0.61
130 | LAWTMSQQIGETRRGAEMCT | 0.106 ± 0.33
131 | ERQLKEEY | 0.06 ± 0.33
132 | CVSFMVTFTIMRQLYNCKCR | 3.91 ± 0.077
133 | IIIYRNYALMEYDVGRV | 0.75 ± 0.76
134 | FSTFYY | inactive
135 | IRSYHLVFVGM | 5.13 ± 0.1
136 | AAWDLVVGQ | -0.473 ± 0.32
137 | LYGFANYFRFMRYWTRNVVP | 0.124 ± 1.2
138 | NLTDTKLRDNGKNPALADQV | -0.226 ± 0.26
139 | FLPGQNAIFKTLLVCSTVKV | -0.675 ± 1.2
140 | YVDIPVVVS | 0.235 ± 0.32
141 | MYWESSSHEHVSEKPVRLIL | 1.07 ± 0.84
142 | CIYIWCGVFGSYFGFLVLAA | 0.18 ± 0.49
143 | HIYSRYQERRLVFVWYACND | 0.134 ± 0.38
144 | LRILVITYILCT | -0.331 ± 0.42
145 | IHIWSSCLSNYKVILGAEVL | 0.407 ± 0.28
146 | GWTIKSSYYG | -0.906 ± 1.4
147 | VCSRLDSEQHDHECASQELM | 0.106 ± 0.99
148 | IALASCVCLSACWTLDVNSM | 0.989 ± 0.31
149 | YAITRSAVICSNLALNMEC | 2.09 ± 0.23
150 | FQGRNYECIFVDFLRSQKGV | 0.292 ± 1.2

Row | Substance | amyloid nucleation score
151 | GKRSDIVLMLLIEMGHMLSQ | 3.1 ± 0.13
152 | VVEFCCVQT | -1.53 ± 1.7
153 | NTIRFAHLLV | -0.318 ± 0.35
154 | AVVCVIIFYVNDRLYGCNLS | 0.395 ± 0.23
155 | FCSRTRMTICVLCYIHLQGR | 0.521 ± 0.29
156 | KKFFKYELFEVCIFLGYRCS | 0.493 ± 1.2
157 | VVLPWSFIWRCGVERQ | -0.812 ± 0.42
158 | YLLCFWILCFTAVGIFTGFN | 0.456 ± 0.25
159 | VLWPLTISLWC | -0.236 ± 0.51
160 | DLHRRSVCCFENVFVITAYY | 2.06 ± 0.27
161 | GSYGLDGILDQWTPLHSLGG | 0.64 ± 0.46
162 | YFTLFDSRKTVLRSENNTRW | 0.578 ± 0.32
163 | ASLAMISRMYSSYLDGMVFS | -0.412 ± 0.91
164 | FQLRNL | 0.414 ± 0.34
165 | SFLKVGFL | -0.399 ± 1.1
166 | CGKPPFGNYWGTWCKIVVTL | 0.746 ± 0.62
167 | NGYEMVQVLTSFMAAMGVFW | 0.256 ± 0.84
168 | RHIVFDRPSISFWLKSRKRR | 0.501 ± 0.64
169 | AVVWDTIYNKTKPLVRP | 0.57 ± 0.93
170 | CRYTMGSNKVALFYGWMHPG | 0.726 ± 0.66
171 | ISCVDWAIKCGVVGSLVSET | 0.681 ± 0.99
172 | YVWIRIVVVLVRRMCNTDTQ | inactive
173 | LCAFMSYLSSIFSRYNCFYV | 0.268 ± 0.19
174 | SKCLMNS | -1.26 ± 1.7
